Reference: patent US20250388652A1

Tests used:
[1] = biological target: F protein mutant RSV-DS-Cav1-B with a DS-Cav1 structure before fusion (respiratory syncytial virus subtype B, strain 18537) (UniProt P13843)
[2] = biological target: F protein mutant RSV-DS-Cav1-B with a DS-Cav1 structure before fusion (respiratory syncytial virus subtype B, strain 18537) (UniProt P13843); remark: listed apart in the source

anti-RSV monoclonal antibody Nirsevimab (MEDI8897), sequence (VH): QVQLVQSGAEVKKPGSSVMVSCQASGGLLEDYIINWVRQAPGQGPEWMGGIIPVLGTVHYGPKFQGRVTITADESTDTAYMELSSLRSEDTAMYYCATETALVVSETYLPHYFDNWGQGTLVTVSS
anti-RSV monoclonal antibody Nirsevimab (MEDI8897), sequence (VL): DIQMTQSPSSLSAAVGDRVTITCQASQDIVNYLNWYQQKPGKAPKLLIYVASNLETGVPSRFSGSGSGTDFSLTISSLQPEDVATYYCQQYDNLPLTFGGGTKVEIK
anti-RSV monoclonal antibody Clesrovimab (RB1), sequence (VH): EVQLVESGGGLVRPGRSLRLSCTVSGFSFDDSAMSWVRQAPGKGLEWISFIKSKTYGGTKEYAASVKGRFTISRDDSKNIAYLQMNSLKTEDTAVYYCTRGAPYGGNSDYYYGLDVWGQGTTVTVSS
anti-RSV monoclonal antibody Clesrovimab (RB1), sequence (VL): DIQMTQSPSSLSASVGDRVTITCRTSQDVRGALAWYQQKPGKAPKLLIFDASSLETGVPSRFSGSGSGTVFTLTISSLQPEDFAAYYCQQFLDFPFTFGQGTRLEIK

| Substance | Kd [1] [nM] | koff [1] [s⁻¹] | kon [1] [M⁻¹ s⁻¹] | EC50 (read off the curve) [2] [nM] |
| --- | --- | --- | --- | --- |
| anti-RSV monoclonal antibody Clesrovimab (RB1) | 0.00895 | 8.21e-05 | 9.17e+06 |  |
| anti-RSV monoclonal antibody Nirsevimab (MEDI8897) | 3.08 | 0.000333 | 108000 | 10 |
